Experimental data from IntAct's records for PubMed 34927784.

What was measured:
[1] = biological target: cxcr4_human CXCR4 (UniProt P61073)
[2] = biological target: erep1_human ENTREP1 (UniProt Q15884)
Chain of erep1_human ENTREP1 (Q15884 whole entry): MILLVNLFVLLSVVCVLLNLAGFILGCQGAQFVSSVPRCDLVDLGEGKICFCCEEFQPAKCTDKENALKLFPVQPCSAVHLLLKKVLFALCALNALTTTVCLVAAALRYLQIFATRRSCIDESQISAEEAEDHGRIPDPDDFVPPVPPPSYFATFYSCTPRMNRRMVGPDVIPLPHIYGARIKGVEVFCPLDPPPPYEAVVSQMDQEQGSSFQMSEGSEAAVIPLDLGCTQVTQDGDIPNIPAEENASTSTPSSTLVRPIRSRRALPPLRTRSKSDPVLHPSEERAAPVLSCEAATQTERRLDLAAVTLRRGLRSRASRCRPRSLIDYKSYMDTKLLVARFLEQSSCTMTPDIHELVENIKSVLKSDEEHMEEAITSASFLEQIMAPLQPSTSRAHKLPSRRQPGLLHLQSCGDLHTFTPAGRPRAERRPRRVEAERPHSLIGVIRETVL

Chain of E3 ubiquitin-protein ligase Itchy homolog (Homo sapiens), Q96J02-2 C830A (Q96J02 other isoform, or with tags, fused parts or gaps C830A): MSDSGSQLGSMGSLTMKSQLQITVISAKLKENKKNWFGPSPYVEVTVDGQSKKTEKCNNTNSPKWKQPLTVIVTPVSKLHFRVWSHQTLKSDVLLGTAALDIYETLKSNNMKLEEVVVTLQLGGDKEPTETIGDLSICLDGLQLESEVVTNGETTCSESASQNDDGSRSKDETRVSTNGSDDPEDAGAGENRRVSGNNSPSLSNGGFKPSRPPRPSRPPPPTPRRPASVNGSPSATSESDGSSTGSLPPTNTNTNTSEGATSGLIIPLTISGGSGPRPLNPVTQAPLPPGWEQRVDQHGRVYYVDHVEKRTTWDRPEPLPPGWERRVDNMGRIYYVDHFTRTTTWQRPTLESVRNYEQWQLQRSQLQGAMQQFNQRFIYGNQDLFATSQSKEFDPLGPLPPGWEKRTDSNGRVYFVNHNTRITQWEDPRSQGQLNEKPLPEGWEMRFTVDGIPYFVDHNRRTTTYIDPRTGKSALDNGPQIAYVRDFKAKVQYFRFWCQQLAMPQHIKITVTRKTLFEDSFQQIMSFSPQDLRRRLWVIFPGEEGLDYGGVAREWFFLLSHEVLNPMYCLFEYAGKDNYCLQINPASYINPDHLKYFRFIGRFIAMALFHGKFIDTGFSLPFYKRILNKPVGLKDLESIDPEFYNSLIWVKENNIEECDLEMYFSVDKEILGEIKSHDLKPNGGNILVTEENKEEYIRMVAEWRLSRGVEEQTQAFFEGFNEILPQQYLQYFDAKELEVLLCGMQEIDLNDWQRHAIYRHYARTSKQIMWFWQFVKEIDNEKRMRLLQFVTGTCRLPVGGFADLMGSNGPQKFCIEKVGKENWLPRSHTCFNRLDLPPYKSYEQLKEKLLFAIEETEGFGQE
Chain of cxcr4_human CXCR4 (P61073 whole entry): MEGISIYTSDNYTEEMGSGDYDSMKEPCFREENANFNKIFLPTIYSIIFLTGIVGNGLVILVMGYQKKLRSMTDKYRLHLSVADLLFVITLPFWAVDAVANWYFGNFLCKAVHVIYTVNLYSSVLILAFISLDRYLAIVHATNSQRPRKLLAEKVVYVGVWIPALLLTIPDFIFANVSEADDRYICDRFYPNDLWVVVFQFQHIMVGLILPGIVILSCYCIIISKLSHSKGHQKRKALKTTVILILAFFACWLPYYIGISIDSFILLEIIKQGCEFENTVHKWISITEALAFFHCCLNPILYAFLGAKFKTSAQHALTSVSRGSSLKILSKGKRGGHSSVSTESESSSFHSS

effect of a mutation on the interaction [1]: with no effect | effect of a mutation on the interaction [2]: with no effect
Substance: E3 ubiquitin-protein ligase Itchy homolog (Homo sapiens), Q96J02-2 C830A
